Reference: US20260263614A1, “ANTIBODY DRUG CONJUGATES THAT BIND CDCP1 AND USES THEREOF” (Pheon Therapeutics Ltd, priority 2022, published 2026)

Columns and labels:
[1] = comparison value of another MMAE ADC; cited from earlier work
[2] = target: T1, Papain (a Cathepsin B surrogate) (Carica papaya, UniProt P00784); settings: reaction with papain, 24 hours and 96 hours
T1 sequence (P00784 134-345): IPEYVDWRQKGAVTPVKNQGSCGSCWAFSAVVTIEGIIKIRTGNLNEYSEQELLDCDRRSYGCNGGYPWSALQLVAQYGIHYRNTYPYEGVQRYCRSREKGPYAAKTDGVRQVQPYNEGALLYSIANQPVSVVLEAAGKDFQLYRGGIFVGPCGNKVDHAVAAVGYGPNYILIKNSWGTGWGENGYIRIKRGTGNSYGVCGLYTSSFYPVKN

[3] = Control incubation in buffer without S9; settings: 5 μM ADC, pH 5.0
Method: Samples were analysed using LC/QE-orbitrap-MS.
The control incubations include each ADC without the addition of S9.

[4] = Comparative repeat-dose rat toxicity study; type: in vivo; settings: DAR 8 on a Trastuzumab backbone, 20 or 60 mg/kg
[5] = target: T2, huCDCP1(F30-T667 Q525)-8×His_T3 (human, UniProt Q9H5V8 30-667); test: SPR, huCDCP1(F30-T667 Q525)-8×His_T3 as analyte; mAb lot T12
T2 construct: The construct name gives the limits F30-T667 and Q525; also called recombinant CDCP1 ECD; CDCP1 ECD

[6] = target: T3, CDCP1 on antigen-positive cells (A427; CDCP1+ cells MDA-MB-468, PC3, DU145) (Homo sapiens (Human), UniProt Q9H5V8 30-836, On the FIG. 45 cell lines, part of the CDCP1 is proteolytically cleaved in the extracellular domain; the cleavage site is not stated. The uncleaved mature protein is given.); test: binding to CDCP1+ cells (cell line not given), % Maximum against log concentration, fitted curve
T3 construct: also called the antigen; antigen positive cell-line (A427)

[7] = target: T2, huCDCP1(F30-T667 Q525)-8×His_T3; test: SPR, recombinant CDCP1 ECD
[8] = system: MDA-MB-468, PC3, DU145 and OVMZ-6 cells; test: Binding to cells after CDCP1 cleavage; settings: mAbs binding membrane proximal or distal regions of CDCP1
Text: FIG. 45E is an image of polyacrylamide gel binding assay. […] The sequences of the light chain variable region, heavy chain variable region, and CDRs (SEQ ID NOs: 15-22) of “Sequence 2” can be found in Table 2B.

Adcetris
ADC cyno t1/2 [1]: 45 to 72 h

CC[C@@]1(O)C(=O)OCc2c1cc1n(c2=O)Cc2c-1nc1cc(F)c(C)c3c1c2[C@@H](NC(=O)[C@H](C)NC(=O)[C@@H](NC(=O)CCOCCOCCOCCOCCOCCOCCOCCOCCNC(=O)CCN1C(=O)C=CC1=O)C(C)C)CC3 [Compound 30]
rate of cleavage [2]: slower rate compared to other TOPO1 inhibitors having Cathepsin B cleavage mechanisms | LC/MS peak area of released payload (Exatecan; 4NH2-Exatecan; DXd; DM1, per ADC) ([3]; Buffer without S9, 180 min): 26,179 | LC/MS peak area of released payload (Exatecan; 4NH2-Exatecan; DXd; DM1, per ADC) ([3]; Buffer without S9, 360 min): 51,267 | LC/MS peak area of released payload (Exatecan; 4NH2-Exatecan; DXd; DM1, per ADC) ([3]; Buffer without S9, 1440 min): 59,452 | changes in hemopoietic system (red cell parameters) [4]: negligible effects | tolerability ([4]; IV once every 3 weeks, two doses): well tolerated

B1: CDCP1 mAb (unconjugated IgG1 antibody targeted to CDCP1, Sequence 1) (antibody, V domains shown)
VH: EVQLLESGGGLVQPGGSLRLSCAASGFTFSNYAMNWVRQAPGKGLEWVSAISGGGGSTYYADSVKGRFTISRDNSKNTLYLQMNSLRAEDTAVYYCAKESITMVRGVMDYYGMDVWGQGTTVTVSS
VL: DIQLTQSPSFLSASVGDRVTITCRASQGISSYLAWYQQKPGKAPKLLIYAASTLQGGVPSRFSGSGSGTEFTLTISSLQPEDFATYYCQHLNRFPRTFGQGTKVEIK
notes: IgG1; also called unconjugated CDCP1-mAb; unconjugated CDCP1 mAb
Kd [5]: 0.8 nM | koff [5]: 0.000468 s⁻¹ | kon [5]: 584000 M⁻¹ s⁻¹ | EC50 [6]: 0.207 µg/mL | Kd [7]: ~1 nM

B2: mAbs-CDCPA1 Sequence 1: "mAbs-CDCPA1 Sequence 1 (proximal region)" antibody binding the membrane proximal region of CDCP1 (antibody, V domains shown)
VH: EVQLLESGGGLVQPGGSLRLSCAASGFTFSNYAMNWVRQAPGKGLEWVSAISGGGGSTYYADSVKGRFTISRDNSKNTLYLQMNSLRAEDTAVYYCAKESITMVRGVMDYYGMDVWGQGTTVTVSS
VL: DIQLTQSPSFLSASVGDRVTITCRASQGISSYLAWYQQKPGKAPKLLIYAASTLQGGVPSRFSGSGSGTEFTLTISSLQPEDFATYYCQHLNRFPRTFGQGTKVEIK
binding to cells with cleaved CDCP1 [8]: did not show significant difference in binding to CDCP1+ cells
